Assay results from patent publication US20210238281A1 (INSTITUT NATIONAL DE LA SANTE ET DE LA RECHERCHE MEDICALE …, published 2021).
Values belong to the binder of their own block, whether it stands above or below them.

Experiments:
Assay in all cases: ELISA, IgG aggregated with anti-IgG F(ab')2-HRP on coated FcγR
murine FcγRI = biological target: T1, murine FcγRI (murine, UniProt P26151 25-297)
T1 construct: also called FcγRIA; CD64
T1 sequence (looked up): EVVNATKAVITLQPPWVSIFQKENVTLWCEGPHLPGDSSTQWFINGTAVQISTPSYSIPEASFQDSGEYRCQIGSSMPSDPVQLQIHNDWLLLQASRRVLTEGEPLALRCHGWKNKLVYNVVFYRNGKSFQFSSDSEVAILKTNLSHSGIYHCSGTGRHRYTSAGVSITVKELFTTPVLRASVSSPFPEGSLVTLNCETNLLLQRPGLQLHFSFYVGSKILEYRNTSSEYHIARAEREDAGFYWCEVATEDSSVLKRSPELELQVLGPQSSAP
Description: (§1) The binding of the 8-18C5-WT and 8-18C5-Del antibodies to human or murine FcγRs was measured by ELISA after incubation, with the F(ab′)2 of goat anti-human IgG HRP for 2 h at room temperature (at a final concentration of 0.5 μg/ml for each molecule) with gentle stirring. The IgGs aggregated to the F(ab′)2 were then incubated with gentle agitation for 1 h at 30° C. on the Maxisorp or NiNTA immunoplates previously coated with the FcγR and saturated with PBS-BSA 4%.

murine FcγRIII = biological target: T2, murine FcγRIII (murine, UniProt P08508 31-215)
T2 sequence (looked up): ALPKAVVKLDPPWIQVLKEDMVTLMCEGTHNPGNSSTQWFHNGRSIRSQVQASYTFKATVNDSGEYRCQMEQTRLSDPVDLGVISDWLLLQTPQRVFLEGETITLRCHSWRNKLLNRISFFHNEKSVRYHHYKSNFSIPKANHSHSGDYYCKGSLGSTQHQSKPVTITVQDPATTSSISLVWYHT
Description: as §1

murine FcγRIV = biological target: T3, murine FcγRIV (murine, UniProt A0A0B4J1G0 21-203)
T3 sequence: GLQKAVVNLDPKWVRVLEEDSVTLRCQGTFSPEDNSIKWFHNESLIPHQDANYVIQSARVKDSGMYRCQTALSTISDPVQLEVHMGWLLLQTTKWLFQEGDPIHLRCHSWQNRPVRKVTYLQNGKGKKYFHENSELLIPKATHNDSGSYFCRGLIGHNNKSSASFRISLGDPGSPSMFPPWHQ
Description: as §1

murine FcγRIIB = biological target: T4, murine FcγRIIB (murine, UniProt P08101 30-207, limits assumed)
T4 sequence (looked up): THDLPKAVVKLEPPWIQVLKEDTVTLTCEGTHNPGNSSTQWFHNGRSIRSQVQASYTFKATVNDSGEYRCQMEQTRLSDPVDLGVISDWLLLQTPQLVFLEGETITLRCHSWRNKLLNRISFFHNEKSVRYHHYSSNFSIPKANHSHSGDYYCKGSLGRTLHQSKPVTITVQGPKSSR
Description: as §1

binding result (murine FcγRI): no binding (tested: 0.5 µg/ml) | binding result (murine FcγRIII): binds | binding result (murine FcγRIV): no binding (tested: 0.5 µg/ml) | binding result (murine FcγRIIB): binds
B1: recombinant murine monoclonal antibody 8-18C5 (8-18C5-WT) (antibody, mouse IgG1, kappa)
heavy: EVKLHESGAGLVKPGASVEISCKATGYTFSSFWIEWVKQRPGHGLEWIGEILPGRGRTNYNEKFKGKATFTAETSSNTAYMQLSSLTSEDSAVYYCATGNTMVNMPYWGQGTTVTVSSAKTTPPSVYPLAPGSAAQTNSMVTLGCLVKGYFPEPVTVTWNSGSLSSGVHTFPAVLESDLYTLSSSVTVPSSPRPSETVTCNVAHPASSTKVDKKIVPRDCGCKPCICTVPEVSSVFIFPPKPKDVLTITLTPKVTCVVVDISKDDPEVQFSWFVDDVEVHTAQTQPREEQFNSTFRSVSELPIMHQDWLNGKEFKCRVNSAAFPAPIEKTISKTKGRPKAPQVYTIPPPKEQMAKDKVSLTCMITDFFPEDITVEWQWNGQPAENYKNTQPIMNTNGSYFVYSKLNVQKSNWEAGNTFTCSVLHEGLHNHHTEKSLSHSPGK
light: DIELTQSPSSLAVSAGEKVTMSCKSSQSLLNSGNQKNYLAWYQQKPGLPPKLLIYGASTRESGVPDRFTGSGSGTDFTLTISSVQAEDLAVYYCQNDHSYPLTFGAGTKLEIKRADAAPTVSIFPPSSEQLTSGGASVVCFLNNFYPKDINVKWKIDGSERQNGVLNSWTDQDSKDSTYSMSSTLTLTKDEYERHNSYTCEATHKTSTSPIVKSFNRNEC
notes: Murine IgG1 (consensus IGHG1*01 constant domain) produced in HEK or YB2/0 cells; also called mAb 8-18C5; YB2

binding result (murine FcγRI): no binding (tested: 0.5 µg/ml) | binding result (murine FcγRIII): no binding (tested: 0.5 µg/ml) | binding result (murine FcγRIV): no binding (tested: 0.5 µg/ml) | binding result (murine FcγRIIB): no binding (tested: 0.5 µg/ml)
B2: 8-18C5-Del variant of the recombinant murine antibody 8-18C5 (antibody, mouse IgG1, kappa)
heavy: EVKLHESGAGLVKPGASVEISCKATGYTFSSFWIEWVKQRPGHGLEWIGEILPGRGRTNYNEKFKGKATFTAETSSNTAYMQLSSLTSEDSAVYYCATGNTMVNMPYWGQGTTVTVSSAKTTPPSVYPLAPGSAAQTNSMVTLGCLVKGYFPEPVTVTWNSGSLSSGVHTFPAVLESDLYTLSSSVTVPSSPRPSETVTCNVAHPASSTKVDKKIVPRDCGCKPCICTVPEVSSVFIFPPKPKDVLTITLTPKVTCVVVDISKDDPEVQFSWFVDDVEVHTAQTQPREQFNSTFRSVSELPIMHQDWLNGKEFKCRVNSAAFPAPIEKTISKTKGRPKAPQVYTIPPPKEQMAKDKVSLTCMITDFFPEDITVEWQWNGQPAENYKNTQPIMNTNGSYFVYSKLNVQKSNWEAGNTFTCSVLHEGLHNHHTEKSLSHSPGK
light: B1 light
modifications: Fc N-glycan highly sialylated (antibody produced in YB2/0 cells); the letters do not carry it.
notes: Murine IgG1, produced in YB2/0 cells; also called m8-18C5-Del
